Laboratory results taken from patent US20230272059A1 (TILLOTTS PHARMA, published 2023).
Changes are numbered by the printed parent chain. Where two headings read alike, the source gives them in different places.

B1: humanized scFv 16-22-H05-sc02 (scFv)
scFv: MDIQMTQSPSSLSASVGDRVTIKCQASQSIFSGLAWYQQKPGKAPKLLIYGASKLASGVPSRFSGSGSGTEFTLTISGLQPADFATYYCQSYYYSSSSSDGSYAFGGGTKLTVLGGGGGSGGGGSGGGGSGGGGSEVQLVESGGGLVQPGGSLRLSCKASGIDFNNYGIGWVRQAPGKGLEWITYIYPGFAITNFANSVKGRFTISSDNSKNTVYLQMNSLRAEDTAVYYCARDPVYATSSGYFDLWGQGTLVTVSS
notes: also called 16-22-H05-sc02 (STR); structural graft
B2: humanized scFv 16-22-H05-sc04 (scFv)
scFv: B1 scFv with K23T
notes: also called 16-22-H05-sc04 (CDR/STR); domain shuffled variant

Columns and labels:
[1] = molecular target: T1, recombinant human TNFα (human, UniProt P01375 77-233); experiment: cell-based or functional assay
[2] = molecular target: T1, recombinant human TNFα; experiment: cell-based or functional assay; remark: listed apart in the source
[3] = molecular target: T1, recombinant human TNFα; experiment: cell-based or functional assay; remark: listed apart in the source
[4] = molecular target: recombinant Cynomolgus monkey TNFα (Cynomolgus monkey (Macaca fascicularis), UniProt P79337 77-233); experiment: cell-based or functional assay
[5] = molecular target: Rhesus monkey TNFα (Rhesus monkey (Macaca mulatta), UniProt P48094 77-233); experiment: cell-based or functional assay
[6] = molecular target: T1, recombinant human TNFα; experiment: inhibition ELISA, blocking of biotinylated TNFα binding to coated TNFRII-Fc
[7] = molecular target: T1, recombinant human TNFα; experiment: inhibition ELISA, blocking of biotinylated TNFα binding to coated TNFRI-Fc; relative to infliximab
[8] = molecular target: T1, recombinant human TNFα; experiment: inhibition ELISA, blocking of biotinylated TNFα binding to coated TNFRII-Fc; relative to infliximab
[9] = molecular target: T1, recombinant human TNFα; experiment: inhibition ELISA: biotinylated human TNFα pre-incubated with serially diluted scFv, binding of unblocked TNFα to coated TNFRII-Fc detected

T1 sequence (P01375 77-233 limits assumed): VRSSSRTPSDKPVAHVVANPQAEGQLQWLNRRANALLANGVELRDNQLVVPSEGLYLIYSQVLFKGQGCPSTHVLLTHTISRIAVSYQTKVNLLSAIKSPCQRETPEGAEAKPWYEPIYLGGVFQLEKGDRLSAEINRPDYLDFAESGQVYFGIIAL
Rhesus monkey TNFα, sequence (P48094 77-233 limits assumed): as the sequence (P01375 77-233 limits assumed) above, with R44T, T72N, R138L counted along it
recombinant Cynomolgus monkey TNFα, sequence (P79337 77-233 limits assumed): as the sequence (P01375 77-233 limits assumed) above, with L37V, R44T, T72N, R138L counted along it

Binder	L929 assay, rel. IC50 (IC50 infliximab / IC50 scFv, ng/mL) [1]	IC50 (read off the curve) (L929 assay, % growth) [2]	IC50 (read off the curve) (L929 assay, % growth) [3]	IC50 (read off the curve) (L929 assay, % growth) [4]	IC50 (read off the curve) (L929 assay, % growth) [5]	IC [ng] (head cut off; probably IC50 [ng/mL]) [6]	rel. IC50 (IC50 infliximab / IC50 scFv, ng/mL) [7]	rel. IC50 (IC50 infliximab / IC50 scFv, ng/mL) [8]	IC50 (read off the curve) [9]
B1	13.1	~0.5 ng/mL	~0.6 ng/mL	~3 ng/mL	~3 ng/mL	20 ng (head cut off)	3.5	5.7	~20 ng/mL
B2	14.6	~0.5 ng/mL	~0.6 ng/mL	~3 ng/mL	~3 ng/mL	32 ng (head cut off)	2.8	3.5	~30 ng/mL
